# Laboratory results as given in PMC9293896.
# Where a chain is given by its changes, count along the chain named.
# Experiments:
# [1] = biological target: OTR K116A, N-terminal SNAP-tag (human) (UniProt P30559)
# [2] = biological target: T1, truncated V1AR (residues 1-378, T378K) G337A, N-terminal SNAP-tag (human) (UniProt P37288)
# T1 sequence: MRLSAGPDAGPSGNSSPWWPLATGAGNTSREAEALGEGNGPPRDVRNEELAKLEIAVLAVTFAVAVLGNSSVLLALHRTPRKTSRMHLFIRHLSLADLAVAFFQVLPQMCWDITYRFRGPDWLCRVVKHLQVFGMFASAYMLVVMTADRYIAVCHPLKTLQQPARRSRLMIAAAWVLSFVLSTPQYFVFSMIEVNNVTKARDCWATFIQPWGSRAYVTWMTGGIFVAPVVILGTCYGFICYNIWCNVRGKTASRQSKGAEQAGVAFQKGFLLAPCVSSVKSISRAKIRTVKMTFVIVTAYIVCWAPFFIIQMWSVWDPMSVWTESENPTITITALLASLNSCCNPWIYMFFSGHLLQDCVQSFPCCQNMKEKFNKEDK
# [3] = biological target: OTR Q171A, N-terminal SNAP-tag (human) (UniProt P30559)
# [4] = biological target: OTR F291A, N-terminal SNAP-tag (human) (UniProt P30559)
# [5] = biological target: T2, truncated V1AR (residues 1-378 with C-terminal mutation T378K), N-terminal SNAP-tag (human) (UniProt P37288)
# T2 sequence: T1 sequence with A337G
# [6] = biological target: OTR-D153Y, N-terminal SNAP-tag (human) (UniProt P30559)
# [7] = biological target: OTR Q119A, N-terminal SNAP-tag (human) (UniProt P30559)
# [8] = biological target: OTR F175A, N-terminal SNAP-tag (human) (UniProt P30559)
# [9] = biological target: OTR F292A, N-terminal SNAP-tag (human) (UniProt P30559)
# [10] = biological target: OTR W188A, N-terminal SNAP-tag (human) (UniProt P30559)
# [11] = biological target: wild-type human oxytocin receptor, full length, N-terminal SNAP-tag (human) (UniProt P30559)
# [12] = biological target: OTR Q171N, N-terminal SNAP-tag (human) (UniProt P30559)
# [13] = biological target: OTR Q295A, N-terminal SNAP-tag (human) (UniProt P30559)
# [14] = biological target: OTR Q92A, N-terminal SNAP-tag (human) (UniProt P30559)
# [15] = biological target: OTR L316A, N-terminal SNAP-tag (human) (UniProt P30559)
# [16] = biological target: OTR A318G, N-terminal SNAP-tag (human) (UniProt P30559)
# [17] = biological target: OTR I201A, N-terminal SNAP-tag (human) (UniProt P30559)
# [18] = biological target: OTR Q96A, N-terminal SNAP-tag (human) (UniProt P30559)
# [19] = biological target: T1, truncated V1AR (residues 1-378, T378K) G337A, N-terminal SNAP-tag (human); test: AlphaScreen or HTRF; whole-cell saturation binding; SNAP-tagged receptor on transfected HEK293T/17 cells labelled with SNAP-Lumi4-Tb; concentration range of HiLyte Fluor 488-Orn8 oxytocin, 1 h at room temperature in 20 mM Hepes pH 7.5, 100 mM KCl, 3 mM MgCl2, 0.05% BSA; nonspecific binding with 1000-fold excess of unlabelled oxytocin; one-site saturation fit
# [20] = biological target: T2, truncated V1AR (residues 1-378 with C-terminal mutation T378K), N-terminal SNAP-tag (human); test: as above
# [21] = biological target: OTR-D153Y, N-terminal SNAP-tag (human) (UniProt P30559); test: as above
# [22] = biological target: wild-type human oxytocin receptor, full length, N-terminal SNAP-tag (human) (UniProt P30559); test: as above
# [23] = biological target: OTR A318G, N-terminal SNAP-tag (human) (UniProt P30559); test: as above
# Sequence of oxytocin (P01178 whole entry, looked up, the tested form may be a part): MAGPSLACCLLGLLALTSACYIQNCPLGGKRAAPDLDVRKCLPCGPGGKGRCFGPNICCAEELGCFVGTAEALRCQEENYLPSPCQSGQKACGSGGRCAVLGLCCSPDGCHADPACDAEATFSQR
substance,measurement,setting,value
oxytocin (from UniProt P01178 20-28) (peptide),"OT-induced IP1 accumulation (HTRF IP-One) in transfected HEK293T cells, EC50",[1],6.1 nM
same,"OT-induced IP1 accumulation (HTRF IP-One) in transfected HEK293T cells, EC50",[2],250 nM
same,"OT-induced IP1 accumulation (HTRF IP-One) in transfected HEK293T cells, EC50",[3],992 nM
same,"OT-induced IP1 accumulation (HTRF IP-One) in transfected HEK293T cells, EC50",[4],542 nM
same,"OT-induced IP1 accumulation (HTRF IP-One) in transfected HEK293T cells, EC50",[5],158 nM
same,"OT-induced IP1 accumulation (HTRF IP-One) in transfected HEK293T cells, EC50",[6],42.9 nM
same,"OT-induced IP1 accumulation (HTRF IP-One) in transfected HEK293T cells, EC50",[7],444 nM
same,"OT-induced IP1 accumulation (HTRF IP-One) in transfected HEK293T cells, EC50",[8],3480 nM
same,"OT-induced IP1 accumulation (HTRF IP-One) in transfected HEK293T cells, EC50",[9],6.1 nM
same,"OT-induced IP1 accumulation (HTRF IP-One) in transfected HEK293T cells, EC50",[10],156 nM
same,"OT-induced IP1 accumulation (HTRF IP-One) in transfected HEK293T cells, EC50",[11],8.4 nM
same,"OT-induced IP1 accumulation (HTRF IP-One) in transfected HEK293T cells, EC50",[12],39.1 nM
same,"OT-induced IP1 accumulation (HTRF IP-One) in transfected HEK293T cells, EC50",[13],51.3 nM
same,"OT-induced IP1 accumulation (HTRF IP-One) in transfected HEK293T cells, EC50",[14],222 nM
same,"OT-induced IP1 accumulation (HTRF IP-One) in transfected HEK293T cells, EC50",[15],21.9 nM
same,"OT-induced IP1 accumulation (HTRF IP-One) in transfected HEK293T cells, EC50",[16],4.6 nM
same,"OT-induced IP1 accumulation (HTRF IP-One) in transfected HEK293T cells, EC50",[17],89.5 nM
same,"OT-induced IP1 accumulation (HTRF IP-One) in transfected HEK293T cells, EC50",[18],1540 nM
HiLyte Fluor 488-Orn^8 oxytocin (from UniProt P01178 20-28) (peptide),Kd,[19],20.9 nM
same,Kd,[20],9.3 nM
same,Kd,[21],6.4 nM
same,Kd,[22],1.4 nM
same,Kd,[23],0.9 nM
